Results on three substances are retold here after patent US20210403527A1.

The target in assay [1] is composite TCR 001 (human variable domains, mouse constant domains) (mouse) (UniProt P01849). In words: Flow cytometry, dextramer against CD8a, sorted T cells expressing composite TCR 001 after 12 days of post-sort expansion, left panel.
Assay [2] has as its target NY-ESO-1 peptide on HLA-A*02:01 (human). In words: AP-1 luciferase reporter; Jurkat J.RT3.T3.5 with CD8A/B; HLA-A2+ 293T cells pulsed with 100 uM NY-ESO-1 peptide; full-length, on cells. (In general: In a reporter assay the amount or activity of a reporter protein is the signal.)
The target of assay [3] is HLA-A2/NY-ESO-1 (157-165) complex on cells (human). As to the kind of experiment: cell-based or functional assay.

Sequence of composite TCR 001 (human variable domains, mouse constant domains) (mouse) (P01849 other isoform, or with tags, fused parts or gaps, chain 1 of 2): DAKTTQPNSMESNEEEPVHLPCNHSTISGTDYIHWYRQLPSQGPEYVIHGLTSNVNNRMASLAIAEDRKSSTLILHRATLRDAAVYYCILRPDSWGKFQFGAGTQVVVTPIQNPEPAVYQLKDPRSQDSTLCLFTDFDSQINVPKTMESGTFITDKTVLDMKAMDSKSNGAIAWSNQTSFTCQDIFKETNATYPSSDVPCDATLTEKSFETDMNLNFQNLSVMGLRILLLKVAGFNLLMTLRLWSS
Sequence of composite TCR 001 (human variable domains, mouse constant domains) (mouse) (P01852 other isoform, or with tags, fused parts or gaps, chain 2 of 2, further chain): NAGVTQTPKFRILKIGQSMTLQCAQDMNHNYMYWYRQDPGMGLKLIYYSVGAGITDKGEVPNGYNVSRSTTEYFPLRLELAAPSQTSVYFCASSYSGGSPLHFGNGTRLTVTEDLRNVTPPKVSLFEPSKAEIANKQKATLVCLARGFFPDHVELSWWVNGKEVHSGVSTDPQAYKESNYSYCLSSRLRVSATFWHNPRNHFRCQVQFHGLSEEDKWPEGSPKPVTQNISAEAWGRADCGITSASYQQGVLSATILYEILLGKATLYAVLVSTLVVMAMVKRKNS

As to Control Dextramer (peptide-MHC), in assay [1], the Dex+ CD8+ (share of cells in the gate) was determined as 0.52. Turning to 1G4, the signal to noise ratio (RLU with peptide-pulsed APCs / RLU with non-pulsed APCs) in assay [2] is 6.3.

As for “patient-derived NY-ESO-1 specific comparator TCR 1G4”, the Signal to Noise (S/N) ratio (RLU to peptide pulsed APCs divided by RLU to non-pulsed APCs), AP-1 luciferase reporter T cells in assay [3] turned out to be 6.3.
